For three molecules, binding result and difference between inverse central linewidths (1/LW) of EPR spectra with and without Amel results are on record in PMC9966149, “The Dynamic Interactions of a Multitargeting Domain in Ameloblastin Protein with Amelogenin and Membrane” (International Journal of Molecular Sciences, 2023).

Experiment [1] deals with T1, tryptophan-free recombinant porcine amelogenin (rP172-W25Y/W45Y/W161Y) (porcine, UniProt P45561 17-189, W25Y | W45Y | W161Y).
T1 construct: all three tryptophans changed to tyrosine; also called rP172-W0; recombinant Amel
T1 sequence (looked up): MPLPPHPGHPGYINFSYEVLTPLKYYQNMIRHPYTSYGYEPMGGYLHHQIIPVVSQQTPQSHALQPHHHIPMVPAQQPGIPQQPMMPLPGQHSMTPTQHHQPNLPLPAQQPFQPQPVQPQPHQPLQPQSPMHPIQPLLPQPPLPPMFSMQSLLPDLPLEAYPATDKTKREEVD
As to the kind of experiment: other fluorescence titration; intrinsic tryptophan fluorescence (excitation 295 nm, peak wavelength); 8 uM tryptophan-containing peptide before and after 40 uM rP172-W0, no LUVs; 10 mM Tris-HCl, 50 mM NaCl, final pH 7.4. To be noted: both partners purified.

Experiment [2] concerns the target spin-labeled xAB2N and AB2 (all residues). As to the kind of experiment: EPR (continuous-wave, site-directed spin labelling); 15 uM spin-labeled peptide in 50 mM Tris, pH 7.6, 50 mM NaCl; rP172-W0 added to 15 uM, then to 75 uM; all in solution.

B1: AB2N, the first 20 amino acids of the AB2 sequence (peptide, UniProt O55189 67-86, looked up)
peptide: YSRLGFGKALNSLWLHGLLP
notes: Mouse ameloblastin (Ambn), the first 20 residues of AB2; residues 3-20 of AB2 are stated to be residues 69-86 of mouse Ambn, so the peptide is 67-86; also called AB2 N-terminus; source: synthetic peptide (Biomer Technologies)
As for B1, the binding result in experiment [1] is reported as “binds”.

B2: xAB2N, extended AB2 N-terminus (peptide, UniProt O55189 51-86, looked up)
peptide: TMRQLGSLQGLNALSQYSRLGFGKALNSLWLHGLLP
notes: source: synthetic peptide (Biomer Technologies)
On to B2, for which the binding result in experiment [1] is on record as “binds”.

B3: tryptophan-free recombinant porcine amelogenin (rP172-W25Y/W45Y/W161Y) (natural protein)
chain: T1 sequence (looked up)
B3: the difference between inverse central linewidths (1/LW) of EPR spectra with and without Amel in experiment [2] fell in the range of 0.16 to 0.35 G.^-1.
